Measured values taken from the supplement of paper PMC9112550, “Optimization of the antimicrobial peptide Bac7 by deep mutational scanning” (BMC Biology, 2022).

What follows are sequences tested on Escherichia coli TOP10 (assay: shrunken log2 fold change of peptide-encoding DNA abundance (4.5 h post-induction vs induction); higher = less antimicrobial activity (less host growth inhibition)). Conditions: time post-induction: 4.5 h; library: site-saturation at positions 5, 18, 19, 20.
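Further: peptides expressed intracellularly from a pBAD plasmid library in pooled LB shake-flask culture, induced with 0.3% L-arabinose, DNA abundance read by NGS, three biological replicates, DESeq2 with apeglm shrinkage.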

Row | Sequence | shrunken log2 fold change
1 | RRIRIRPPRLPRPRPRPMYAPRP | -0.191
2 | RRIRIRPPRLPRPRPRPNDFPRP | -0.276
3 | RRIRIRPPRLPRPRPRPNECPRP | -0.0258
4 | RRIRIRPPRLPRPRPRPNFNPRP | -0.745
5 | RRIRIRPPRLPRPRPRPNGMPRP | -0.0985
6 | RRIRIRPPRLPRPRPRPNHRPRP | 0.0615
7 | RRIRIRPPRLPRPRPRPNKLPRP | -0.499
8 | RRIRIRPPRLPRPRPRPNKWPRP | -0.0869
9 | RRIRIRPPRLPRPRPRPNLPPRP | -0.173
10 | RRIRIRPPRLPRPRPRPNLVPRP | -0.175
11 | RRIRIRPPRLPRPRPRPNNRPRP | -0.557
12 | RRIRIRPPRLPRPRPRPNNSPRP | -0.655
13 | RRIRIRPPRLPRPRPRPNPWPRP | -0.119
14 | RRIRIRPPRLPRPRPRPNQPPRP | -0.0903
15 | RRIRIRPPRLPRPRPRPNRPPRP | -0.212
16 | RRIRIRPPRLPRPRPRPNRQPRP | -0.56
17 | RRIRIRPPRLPRPRPRPNRWPRP | -0.0394
18 | RRIRIRPPRLPRPRPRPNTEPRP | -0.0443
19 | RRIRIRPPRLPRPRPRPNTGPRP | -0.663
20 | RRIRIRPPRLPRPRPRPNVIPRP | -0.82
21 | RRIRIRPPRLPRPRPRPNWEPRP | 0.00543
22 | RRIRIRPPRLPRPRPRPNYQPRP | -0.43
23 | RRIRIRPPRLPRPRPRPPAKPRP | 0.309
24 | RRIRIRPPRLPRPRPRPPAPPRP | 0.298
25 | RRIRIRPPRLPRPRPRPPCNPRP | -0.449

Row | Sequence | shrunken log2 fold change
26 | RRIRIRPPRLPRPRPRPPCQPRP | 0.0801
27 | RRIRIRPPRLPRPRPRPPCSPRP | -0.339
28 | RRIRIRPPRLPRPRPRPPDYPRP | -0.0646
29 | RRIRIRPPRLPRPRPRPPEYPRP | -0.186
30 | RRIRIRPPRLPRPRPRPPFNPRP | -0.473
31 | RRIRIRPPRLPRPRPRPPFWPRP | 0.288
32 | RRIRIRPPRLPRPRPRPPHDPRP | -0.0948
33 | RRIRIRPPRLPRPRPRPPIWPRP | -0.00949
34 | RRIRIRPPRLPRPRPRPPLMPRP | -0.16
35 | RRIRIRPPRLPRPRPRPPNPPRP | 0.765
36 | RRIRIRPPRLPRPRPRPPPSPRP | 0.399
37 | RRIRIRPPRLPRPRPRPPQHPRP | -0.107
38 | RRIRIRPPRLPRPRPRPPREPRP | 0.535
39 | RRIRIRPPRLPRPRPRPPSCPRP | -0.0736
40 | RRIRIRPPRLPRPRPRPPSGPRP | 0.537
41 | RRIRIRPPRLPRPRPRPPSYPRP | -0.336
42 | RRIRIRPPRLPRPRPRPPTAPRP | 0.335
43 | RRIRIRPPRLPRPRPRPPTDPRP | 1.33
44 | RRIRIRPPRLPRPRPRPPVWPRP | 0.187
45 | RRIRIRPPRLPRPRPRPPWFPRP | -0.136
46 | RRIRIRPPRLPRPRPRPPWHPRP | -0.126
47 | RRIRIRPPRLPRPRPRPPWIPRP | -0.173
48 | RRIRIRPPRLPRPRPRPPYLPRP | -0.612
49 | RRIRIRPPRLPRPRPRPPYSPRP | 0.0677
50 | RRIRIRPPRLPRPRPRPPYTPRP | -0.822

Row | Sequence | shrunken log2 fold change
51 | RRIRIRPPRLPRPRPRPQACPRP | 0.126
52 | RRIRIRPPRLPRPRPRPQCCPRP | -0.0258
53 | RRIRIRPPRLPRPRPRPQDQPRP | -0.242
54 | RRIRIRPPRLPRPRPRPQDTPRP | -0.048
55 | RRIRIRPPRLPRPRPRPQDYPRP | -0.162
56 | RRIRIRPPRLPRPRPRPQFNPRP | -0.846
57 | RRIRIRPPRLPRPRPRPQGIPRP | -0.012
58 | RRIRIRPPRLPRPRPRPQGVPRP | -0.0375
59 | RRIRIRPPRLPRPRPRPQHDPRP | -0.0884
60 | RRIRIRPPRLPRPRPRPQKDPRP | -0.421
61 | RRIRIRPPRLPRPRPRPQKGPRP | -0.33
62 | RRIRIRPPRLPRPRPRPQKIPRP | -0.148
63 | RRIRIRPPRLPRPRPRPQLEPRP | 0.000806
64 | RRIRIRPPRLPRPRPRPQLTPRP | -0.28
65 | RRIRIRPPRLPRPRPRPQMMPRP | -0.622
66 | RRIRIRPPRLPRPRPRPQMSPRP | -0.0696
67 | RRIRIRPPRLPRPRPRPQNHPRP | -0.871
68 | RRIRIRPPRLPRPRPRPQPWPRP | 0.102
69 | RRIRIRPPRLPRPRPRPQQHPRP | -0.551
70 | RRIRIRPPRLPRPRPRPQQWPRP | -0.421
71 | RRIRIRPPRLPRPRPRPQSCPRP | -0.0388
72 | RRIRIRPPRLPRPRPRPQTLPRP | -0.129
73 | RRIRIRPPRLPRPRPRPQTNPRP | -0.423
74 | RRIRIRPPRLPRPRPRPQVPPRP | 0.00863
75 | RRIRIRPPRLPRPRPRPQWDPRP | 0.92
